System: Escherichia coli TOP10
Assay: shrunken log2 fold change of peptide-encoding DNA abundance (4.5 h post-induction vs induction); higher = less antimicrobial activity (less host growth inhibition)
Conditions: time post-induction: 4.5 h; library: site-saturation at positions 5, 18, 19, 20
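Note: peptides expressed intracellularly from a pBAD plasmid library in pooled LB shake-flask culture, induced with 0.3% L-arabinose, DNA abundance read by NGS, three biological replicates, DESeq2 with apeglm shrinkage.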

Row | Sequence | shrunken log2 fold change
1 | RRIRTRPPRLPRPRPRPKAMPRP | 0.0836
2 | RRIRWRPPRLPRPRPRPIAYPRP | 0.000575
3 | RRIRYRPPRLPRPRPRPSEKPRP | -0.116
4 | RRIRLRPPRLPRPRPRPITYPRP | -0.266
5 | RRIRVRPPRLPRPRPRPLCNPRP | -0.139
6 | RRIRKRPPRLPRPRPRPTVFPRP | 0.0385
7 | RRIRIRPPRLPRPRPRPQICPRP | -0.0396
8 | RRIRWRPPRLPRPRPRPIHVPRP | -0.0677
9 | RRIRWRPPRLPRPRPRPDMPPRP | 0.325
10 | RRIRARPPRLPRPRPRPRGVPRP | 0.682
11 | RRIRVRPPRLPRPRPRPCNDPRP | -0.437
12 | RRIRKRPPRLPRPRPRPSQTPRP | 0.026
13 | RRIRERPPRLPRPRPRPKEEPRP | -0.000921
14 | RRIRVRPPRLPRPRPRPSKEPRP | -0.263
15 | RRIRARPPRLPRPRPRPFAVPRP | 0.129
16 | RRIRGRPPRLPRPRPRPLTVPRP | 0.48
17 | RRIRQRPPRLPRPRPRPQCAPRP | -0.183
18 | RRIRFRPPRLPRPRPRPSWLPRP | 0.156
19 | RRIRIRPPRLPRPRPRPEFIPRP | -0.00702
20 | RRIRDRPPRLPRPRPRPFICPRP | -0.0606
21 | RRIRQRPPRLPRPRPRPVINPRP | -0.102
22 | RRIRNRPPRLPRPRPRPVCEPRP | 1.34
23 | RRIRYRPPRLPRPRPRPLDAPRP | -0.0975
24 | RRIRTRPPRLPRPRPRPNCFPRP | -0.0362
25 | RRIRPRPPRLPRPRPRPDKCPRP | -0.432

Row | Sequence | shrunken log2 fold change
26 | RRIRNRPPRLPRPRPRPCYCPRP | -0.00992
27 | RRIRSRPPRLPRPRPRPQQWPRP | -0.175
28 | RRIRNRPPRLPRPRPRPWAEPRP | 0.125
29 | RRIRERPPRLPRPRPRPAGPPRP | -0.0342
30 | RRIRQRPPRLPRPRPRPMFVPRP | 0.493
31 | RRIRLRPPRLPRPRPRPTMRPRP | 0.836
32 | RRIRQRPPRLPRPRPRPIWLPRP | 0.66
33 | RRIRARPPRLPRPRPRPRSFPRP | 0.202
34 | RRIRHRPPRLPRPRPRPTDDPRP | 0.0853
35 | RRIRRRPPRLPRPRPRPDQGPRP | -0.0712
36 | RRIRARPPRLPRPRPRPWCKPRP | 0.102
37 | RRIRWRPPRLPRPRPRPGMAPRP | 0.627
38 | RRIRDRPPRLPRPRPRPSTTPRP | 0.0945
39 | RRIRVRPPRLPRPRPRPGSCPRP | 0.216
40 | RRIRPRPPRLPRPRPRPVALPRP | 0.0375
41 | RRIRARPPRLPRPRPRPKCWPRP | 0.622
42 | RRIRERPPRLPRPRPRPFSQPRP | -0.347
43 | RRIRERPPRLPRPRPRPCLCPRP | -0.134
44 | RRIRPRPPRLPRPRPRPMKDPRP | -0.313
45 | RRIRFRPPRLPRPRPRPHEYPRP | -0.264
46 | RRIRYRPPRLPRPRPRPMAAPRP | -0.115
47 | RRIRMRPPRLPRPRPRPIIFPRP | -0.0918
48 | RRIRHRPPRLPRPRPRPEWRPRP | -0.0322
49 | RRIRNRPPRLPRPRPRPYVTPRP | -0.553
50 | RRIRQRPPRLPRPRPRPERYPRP | -0.0565

Row | Sequence | shrunken log2 fold change
51 | RRIRARPPRLPRPRPRPQHDPRP | -0.117
52 | RRIRCRPPRLPRPRPRPIWFPRP | 0.21
53 | RRIRTRPPRLPRPRPRPANKPRP | -0.216
54 | RRIRTRPPRLPRPRPRPWSIPRP | -0.325
55 | RRIRKRPPRLPRPRPRPEDLPRP | 1.8
56 | RRIRFRPPRLPRPRPRPHALPRP | -0.222
57 | RRIRMRPPRLPRPRPRPCVWPRP | 0.245
58 | RRIRPRPPRLPRPRPRPALRPRP | 0.545
59 | RRIRARPPRLPRPRPRPELYPRP | 0.428
60 | RRIRVRPPRLPRPRPRPELNPRP | -0.0839
61 | RRIRERPPRLPRPRPRPACLPRP | -0.0938
62 | RRIRGRPPRLPRPRPRPTDQPRP | 0.846
63 | RRIRNRPPRLPRPRPRPHFVPRP | -0.0954
64 | RRIRMRPPRLPRPRPRPGGFPRP | 1.06
65 | RRIRRRPPRLPRPRPRPDKYPRP | -0.259
66 | RRIRYRPPRLPRPRPRPLAFPRP | -0.827
67 | RRIRERPPRLPRPRPRPVRMPRP | 0.11
68 | RRIRKRPPRLPRPRPRPYVSPRP | -0.438
69 | RRIRERPPRLPRPRPRPRFEPRP | 0.168
70 | RRIRFRPPRLPRPRPRPQLEPRP | 0.118
71 | RRIRTRPPRLPRPRPRPCECPRP | 0.0538
72 | RRIRDRPPRLPRPRPRPTKMPRP | 0.269
73 | RRIRDRPPRLPRPRPRPVYQPRP | -0.263
74 | RRIRQRPPRLPRPRPRPLKKPRP | -0.15
75 | RRIRVRPPRLPRPRPRPQNGPRP | -0.356

Row | Sequence | shrunken log2 fold change
76 | RRIRDRPPRLPRPRPRPWFVPRP | -0.18
77 | RRIRIRPPRLPRPRPRPPCTPRP | -0.332
78 | RRIRSRPPRLPRPRPRPIHAPRP | -0.0213
79 | RRIRPRPPRLPRPRPRPDKTPRP | 0.015
80 | RRIRFRPPRLPRPRPRPCLCPRP | -0.0404
81 | RRIRRRPPRLPRPRPRPKMNPRP | -0.0665
82 | RRIRPRPPRLPRPRPRPEQTPRP | 0.0268
83 | RRIRARPPRLPRPRPRPKMIPRP | -0.0208
84 | RRIRNRPPRLPRPRPRPAAFPRP | -0.0633
85 | RRIRTRPPRLPRPRPRPVWKPRP | -0.026
86 | RRIRVRPPRLPRPRPRPKICPRP | -0.0576
87 | RRIRTRPPRLPRPRPRPVLEPRP | 0.179
88 | RRIRFRPPRLPRPRPRPVMRPRP | 0.518
89 | RRIRSRPPRLPRPRPRPAWCPRP | 0.545
90 | RRIRNRPPRLPRPRPRPQMGPRP | 0.102
91 | RRIRGRPPRLPRPRPRPLCCPRP | 0.829
92 | RRIRARPPRLPRPRPRPWYLPRP | -0.161
93 | RRIRTRPPRLPRPRPRPEPTPRP | 0.347
94 | RRIRSRPPRLPRPRPRPNNTPRP | -0.574
95 | RRIRNRPPRLPRPRPRPREPPRP | 0.697
96 | RRIRYRPPRLPRPRPRPKHSPRP | -0.875
97 | RRIRKRPPRLPRPRPRPDQNPRP | 0.678
98 | RRIRFRPPRLPRPRPRPVQKPRP | 0.00252
99 | RRIRWRPPRLPRPRPRPKEDPRP | 0.0809
100 | RRIRARPPRLPRPRPRPLWMPRP | 0.264

Row | Sequence | shrunken log2 fold change
101 | RRIRMRPPRLPRPRPRPGHAPRP | 2.85
102 | RRIRCRPPRLPRPRPRPKPQPRP | 0.324
103 | RRIRHRPPRLPRPRPRPCETPRP | -0.332
104 | RRIRERPPRLPRPRPRPSEDPRP | -0.0724
105 | RRIRMRPPRLPRPRPRPNNTPRP | -0.292
106 | RRIRLRPPRLPRPRPRPQCHPRP | 0.0598
107 | RRIRERPPRLPRPRPRPAHGPRP | 0.131
108 | RRIRKRPPRLPRPRPRPDVCPRP | -0.0122
109 | RRIRSRPPRLPRPRPRPPEAPRP | 0.854
110 | RRIRLRPPRLPRPRPRPPFNPRP | -0.116
111 | RRIRIRPPRLPRPRPRPLPMPRP | -0.204
112 | RRIRTRPPRLPRPRPRPWIFPRP | -0.0415
113 | RRIRLRPPRLPRPRPRPASYPRP | -0.308
114 | RRIRQRPPRLPRPRPRPVTMPRP | -0.0817
115 | RRIRFRPPRLPRPRPRPVYIPRP | -1.22
116 | RRIRVRPPRLPRPRPRPANPPRP | -0.21
117 | RRIRTRPPRLPRPRPRPIKSPRP | -0.61
118 | RRIRNRPPRLPRPRPRPRWNPRP | -0.297
119 | RRIRTRPPRLPRPRPRPDDDPRP | -0.00136
120 | RRIRPRPPRLPRPRPRPNIGPRP | 0.0125
121 | RRIRARPPRLPRPRPRPVLNPRP | -0.0316
122 | RRIRDRPPRLPRPRPRPEEIPRP | -0.0062
123 | RRIRARPPRLPRPRPRPCMIPRP | -0.261
124 | RRIRIRPPRLPRPRPRPYPCPRP | -0.028
125 | RRIRYRPPRLPRPRPRPMKNPRP | -0.191

Row | Sequence | shrunken log2 fold change
126 | RRIRTRPPRLPRPRPRPFKTPRP | 0.0238
127 | RRIRQRPPRLPRPRPRPQSNPRP | -0.00933
128 | RRIRNRPPRLPRPRPRPMKGPRP | -0.0787
129 | RRIRWRPPRLPRPRPRPIIHPRP | -0.463
130 | RRIRWRPPRLPRPRPRPTAVPRP | 0.415
131 | RRIRPRPPRLPRPRPRPNYQPRP | -0.293
132 | RRIRHRPPRLPRPRPRPCFQPRP | -0.558
133 | RRIRPRPPRLPRPRPRPPQAPRP | 0.335
134 | RRIRGRPPRLPRPRPRPLTIPRP | -0.155
135 | RRIRWRPPRLPRPRPRPNEFPRP | -0.161
136 | RRIRNRPPRLPRPRPRPLCNPRP | -0.324
137 | RRIRYRPPRLPRPRPRPPSMPRP | -0.692
138 | RRIRFRPPRLPRPRPRPHGWPRP | 0.309
139 | RRIRDRPPRLPRPRPRPVVEPRP | 0.321
140 | RRIRCRPPRLPRPRPRPAGFPRP | 0.1
141 | RRIRDRPPRLPRPRPRPYRTPRP | -0.0206
142 | RRIRLRPPRLPRPRPRPQPPPRP | 0.517
143 | RRIRQRPPRLPRPRPRPRSQPRP | 0.0421
144 | RRIRGRPPRLPRPRPRPMQNPRP | 0.873
145 | RRIRHRPPRLPRPRPRPPRTPRP | 1.03
146 | RRIRTRPPRLPRPRPRPFYVPRP | -0.45
147 | RRIRNRPPRLPRPRPRPCPHPRP | -0.01
148 | RRIRARPPRLPRPRPRPANKPRP | 0.0442
149 | RRIRNRPPRLPRPRPRPGLMPRP | 0.235
150 | RRIRPRPPRLPRPRPRPSGMPRP | -0.183
